In US20250304927A1, “PRO-PEPTIDE VARIANTS FOR MODULATING ACTIVITY OF TRANSGLUTAMINASES” (CURIE CO. INC., priority 2022, published 2025):
Where no end group is shown, it is not given here.

T1: evolved variant of mature Streptomyces mobaraensis transglutaminase, including a two amino acid linker and … (Streptomyces mobaraensis, UniProt P81453 79-407)
T1 chain: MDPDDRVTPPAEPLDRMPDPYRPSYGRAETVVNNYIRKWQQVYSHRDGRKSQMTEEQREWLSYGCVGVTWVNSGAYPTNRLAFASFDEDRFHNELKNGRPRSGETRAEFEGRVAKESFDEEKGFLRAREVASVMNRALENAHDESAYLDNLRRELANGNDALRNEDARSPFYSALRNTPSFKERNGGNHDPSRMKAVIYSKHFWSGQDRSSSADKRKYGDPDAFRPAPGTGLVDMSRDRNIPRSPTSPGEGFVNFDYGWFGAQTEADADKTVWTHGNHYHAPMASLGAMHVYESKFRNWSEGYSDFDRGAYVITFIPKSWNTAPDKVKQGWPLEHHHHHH


Key:
[1] = molecular target: T2, mature evolved transglutaminase (SEQ ID NO: 5) (Streptomyces mobaraensis, UniProt P81453, G359A/K167H/K227R/K228R/N358M/Q126S/Q150A/Q200L); experiment: transglutaminase thermostability: activity after being held at 37-50 °C; assay type: biochemical; design: key: The symbol, —, represents not determined, neutral, or reduced performance; settings: relative to wild-type pro-peptide; held at 37° C.-50° C. for 30 minutes, diluted 10-fold to 100-fold
T2 construct: hexa-His tag with two amino acid linker (C); made in house; host or cells: E. coli BL21 (DE3)
Description: The terms “stability” and “thermostability” are used interchangeably to refer to increased residual activity of mature transglutaminase after incubation at elevated temperatures. In some embodiments, a pro-peptide variant increases the stability of a mature transglutaminase compared to the wild type pro-peptide. Measurement of stability is depicted in Example 4.
It is believed that these pro-peptide variants confer thermal stability to mature transglutaminase.

[2] = molecular target: T3, thermostable mature transglutaminase variant (SEQ ID NO: 3) (Streptomyces mobaraensis, UniProt P81453); assay type: biochemical; settings: increase in transglutaminase activity relative to wild-type pro-peptide, casein assay; Method A
T3 construct: made in house; host or cells: E. coli (lysate)
T3 sequence (P81453 other isoform, or with tags, fused parts or gaps): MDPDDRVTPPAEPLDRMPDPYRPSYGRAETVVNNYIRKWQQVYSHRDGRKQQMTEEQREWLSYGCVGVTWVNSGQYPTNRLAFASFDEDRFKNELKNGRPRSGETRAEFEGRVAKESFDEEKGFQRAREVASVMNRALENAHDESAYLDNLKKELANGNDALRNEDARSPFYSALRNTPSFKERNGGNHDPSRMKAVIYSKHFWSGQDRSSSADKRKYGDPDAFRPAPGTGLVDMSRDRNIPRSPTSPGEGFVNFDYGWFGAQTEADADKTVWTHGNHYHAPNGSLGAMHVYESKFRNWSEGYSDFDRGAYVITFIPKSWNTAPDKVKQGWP
From the text: Method A. A bicistronic expression vector encoding the wild-type pro-domain of transglutaminase (SEQ ID NO: 2) and a thermostable mature transglutaminase variant (SEQ ID NO: 3) as separate polypeptides was cloned as described in PCT/US20/49226 (WO2021/178001 A1). The vector was used as a template for synthesis of a random mutagenesis library targeting the pro-domain coding sequence to create pro-domain peptide variants.
Method A. Plasmid libraries containing mature transglutaminase and variant pro-domain peptides were plated on Luria-Bertani (LB) agar plates containing 50 μg/mL of kanamycin. After incubation for at least 16 hours at 37° C., colonies were picked and inoculated into 1 mL of LB broth with 50 μg/mL kanamycin in one well of a 96 deep well culture plate. The plate was covered with a breathable seal and incubated overnight at 37° C. with 400 rpm of shaking. 10 μL of the seed culture was used to inoculate 1 mL of media in a 96 deep well culture plate for expression. The expression plate was allowed to grow for 6-8 hours at 30° C. Expression was then induced by adding isopropyl beta-D-1-thiogalactopyranoside (IPTG) to a final concentration of 1 mM and the temperature was reduced to 20° C. while growth continued for an additional 15 hours. Cells were harvested by centrifugation at 4000 rcf for 30 minutes and pellets were frozen at −80° C.
A secondary screen was performed to determine initial rate of transglutaminase in the presence of the pro-peptide variants using transglutaminase-catalyzed labeling of casein with dansylcadaverine (e.g., a commercially available kit such as the Transglutaminase Fluorogenic Activity Assay Kit, T036, Zedira, Germany). Transglutaminase activity was monitored by measuring the fluorescence (excitation wavelength 332 nm; emission wavelength 500 nm) using a BioTek Synergy H1 microplate reader. Transglutaminase-catalyzed covalent coupling (crosslinking) of monodansylcadaverine with N,N-dimethylcasein produces a product that causes a shift in intensity and wavelength of fluorescence of the dansyl group now linked to the casein. The relative transglutaminase activity is shown by increase of fluorescence intensity over time. The data were normalized for transglutaminase expression levels in E. coli lysate as described above. Pro-domain variants were identified based on their ability to alter the activity of the mature transglutaminase enzyme. […]
It is believed that these pro-peptide variants have reduced binding affinity with mature mTgase.

[3] = molecular target: T1, evolved variant of mature Streptomyces …; experiment: cell-based or functional assay

Row | Molecule | Thermostability [1] | Inhibition [3] | further results
1 | D2I, E7S, L18V, D21R: combination variant of pro-peptide SEQ ID NO: 2, Method B (MINGAGSETKSYAETYRVTARDVANINALNESAPAASSAGPSFRAP) | — |  | 
2 | D2I, D21T, D22Q: combination variant of pro-peptide SEQ ID NO: 2, Method B (MINGAGEETKSYAETYRLTATQVANINALNESAPAASSAGPSFRAP) | — |  | 
3 | E7S, D21T, D22Q: combination variant of pro-peptide SEQ ID NO: 2, Method B (MDNGAGSETKSYAETYRLTATQVANINALNESAPAASSAGPSFRAP) | — |  | 
4 | E7S, D21R: combination variant of pro-peptide SEQ ID NO: 2, Method B (MDNGAGSETKSYAETYRLTARDVANINALNESAPAASSAGPSFRAP) | — |  | 
5 | D2S, E7S, D21I: combination variant of pro-peptide SEQ ID NO: 2, Method B (MSNGAGSETKSYAETYRLTAIDVANINALNESAPAASSAGPSFRAP) | — |  | 
6 | D2S, D21T, D22Q: combination variant of pro-peptide SEQ ID NO: 2, Method B (MSNGAGEETKSYAETYRLTATQVANINALNESAPAASSAGPSFRAP) | — |  | 
7 | L18V, D21T, D22Q: combination variant of pro-peptide SEQ ID NO: 2, Method B (MDNGAGEETKSYAETYRVTATQVANINALNESAPAASSAGPSFRAP) | — |  | 
8 | D2I, E7S, D21I: combination variant of pro-peptide SEQ ID NO: 2, Method B (MINGAGSETKSYAETYRLTAIDVANINALNESAPAASSAGPSFRAP) | — |  | 
9 | D2S, L18V, D22Q: combination variant of pro-peptide SEQ ID NO: 2, Method B (MSNGAGEETKSYAETYRVTADQVANINALNESAPAASSAGPSFRAP) | — |  | 
10 | D2I, E7S, D22Q: combination variant of pro-peptide SEQ ID NO: 2, Method B (MINGAGSETKSYAETYRLTADQVANINALNESAPAASSAGPSFRAP) | — |  | 
11 | E7S, L18V, D21R: combination variant of pro-peptide SEQ ID NO: 2, Method B (MDNGAGSETKSYAETYRVTARDVANINALNESAPAASSAGPSFRAP) | — |  | 
12 | D2S, E7S, D22Q: combination variant of pro-peptide SEQ ID NO: 2, Method B (MSNGAGSETKSYAETYRLTADQVANINALNESAPAASSAGPSFRAP) | — |  | 
13 | D2S, E7S: combination variant of pro-peptide SEQ ID NO: 2, Method B (MSNGAGSETKSYAETYRLTADDVANINALNESAPAASSAGPSFRAP) | — |  | 
14 | D2S, D22Q: combination variant of pro-peptide SEQ ID NO: 2, Method B (MSNGAGEETKSYAETYRLTADQVANINALNESAPAASSAGPSFRAP) | — |  | 
15 | MDNGAGEETKSYANTYRLTADDVANINALNESAPAASSAGPSFRAP [Variant E14N] |  |  | Reduction in binding affinity of inhibitory peptide relative to WT [2]: >1.2 fold
16 | MSNGAGSETKSYAETYRLTADQVANINALNESAPAASSAGPSFRAP [pro-peptide variant D2S, E7S, D22Q (Method B)] |  | > 2 fold | 
17 | MSNGAGSETKSYAETYRLTAIDVANINALNESAPAASSAGPSFRAP [pro-peptide variant D2S, E7S, D21I (Method B)] |  | > 1.2 fold | 
18 | MDNGAGSETKSYAETYRLTADQVANINALNESAPAASSAGPSFRAP [pro-peptide variant E7S, D22Q (Method B)] |  | > 1.2 fold | 
19 | MSNGAGEETKSYAETYRLTADQVANINALNESAPAASSAGPSFRAP [pro-peptide variant D2S, D22Q (Method B)] |  | > 2 fold | 

Row | Molecule | Thermostability [1] | Inhibition [3] | further results
20 | MSNGAGSETKSYAETYRLTADDVANINALNESAPAASSAGPSFRAP [pro-peptide variant D2S, E7S (Method B)] |  | > 2 fold | 
21 | MINGAGSETKSYAETYRLTADQVANINALNESAPAASSAGPSFRAP [pro-peptide variant D2I, E7S, D22Q (Method B)] |  | > 2 fold | 
22 | MDNGAGSETKSYAETYRLTARDVANINALNESAPAASSAGPSFRAP [pro-peptide variant E7S, D21R (Method B)] |  | > 1.2 fold | 
23 | MDNGAGEETKSYAETYRLTATQVANINALNESAPAASSAGPSFRAP [pro-peptide variant D21T, D22Q (Method B)] |  | > 1.2 fold | 
24 | MDNGAGSETKSYAETYRVTARDVANINALNESAPAASSAGPSFRAP [pro-peptide variant E7S, L18V, D21R (Method B)] |  | > 2 fold | 
25 | MDNGAGSETKSYAETYRLTATQVANINALNESAPAASSAGPSFRAP [pro-peptide variant E7S, D21T, D22Q (Method B)] |  | > 1.2 fold | 
26 | MINGAGEETKSYAETYRLTATQVANINALNESAPAASSAGPSFRAP [pro-peptide variant D2I, D21T, D22Q (Method B)] |  | > 1.2 fold | 
27 | MINGAGSETKSYAETYRLTAIDVANINALNESAPAASSAGPSFRAP [pro-peptide variant D2I, E7S, D21I (Method B)] |  | > 1.2 fold | 
28 | MINGAGSETKSYAETYRVTARDVANINALNESAPAASSAGPSFRAP [pro-peptide variant D2I, E7S, L18V, D21R (Method B)] |  | > 2 fold | 
29 | MINGAGEETKSYAETYRLTADQVANINALNESAPAASSAGPSFRAP [pro-peptide variant D2I, D22Q (Method B)] |  | > 1.2 fold | 
30 | MSNGAGEETKSYAETYRVTADQVANINALNESAPAASSAGPSFRAP [pro-peptide variant D2S, L18V, D22Q (Method B)] |  | > 2 fold | 
31 | MDNGAGEETKSYAETYRVTATQVANINALNESAPAASSAGPSFRAP [pro-peptide variant L18V, D21T, D22Q (Method B)] |  | > 2 fold | 
32 | MDNGAGEETKSYAETYRVTATDVANINALNESAPAASSAGPSFRAP [pro-peptide variant L18V, D21T (Method B)] |  | > 2 fold | 
33 | MSNGAGSETKSYAETYRLTATQVANINALNESAPAASSAGPSFRAP [pro-peptide variant D2S, E7S, D21T, D22Q (Method B)] |  | > 2 fold | 
34 | MDNGAGSETKSYAETYRLTATDVANINALNESAPAASSAGPSFRAP [pro-peptide variant E7S, D21T (Method B)] |  | > 1.2 fold | 
35 | MDNGAGSETKSYAETYRVTAIDVANINALNESAPAASSAGPSFRAP [pro-peptide variant E7S, L18V, D21I (Method B)] |  | > 2 fold | 
36 | MDNGAGEETKSYAETYRVTADDVANINALNESAPAASSAGPSFRAP [pro-peptide variant L18V (Method B)] |  | > 2 fold | 
37 | MFNGAGEETKSYAETYRLTADDVANINALNESAPAASSAGPSFRAP [pro-peptide variant D2F (Method B)] |  | > 1.2 fold | 
38 | MSNGAGEETKSYAETYRLTATQVANINALNESAPAASSAGPSFRAP [pro-peptide variant D2S, D21T, D22Q (Method B)] |  | > 1.2 fold | 
